Experimental data as given in patent publication US20260234204A1, “BRK PEPTIDES AND METHODS OF USE” (Concarlo Therapeutics, Inc., priority 2023, published 2026).

B1: IpY.20: smaller and more stable variant of ALT, SEQ ID NO: 6; tested as liposomal IpY.20 (peptide)
chain: MVSRDQAHLGPKYVGLWDFKSRTDEELSFRAGDVFHVARKEEQWWWATLLDEAGGAVAQGYVPHNYLAERETVESEPAGHAGSAALQDLAA
modifications: liposomal formulation

What was measured:
Type in all cases: cell-based
PDAC cell lines [1] = assay: Rescue of IpY.20 effect on viability by pretreatment with inhibitors
Method: When the less sensitive PDAC lines were treated with IpY.20, pRIPK1 expression, a marker of necroptosis, increased (FIG. 3A). To determine if ROS-dependent induction of pRIPK1 and necroptosis was responsible for IpY.20's effect in PDAC cell lines, cells lines (A-D) were treated with N-acetyl-1-cysteine (5 mM) a ROS inhibitor, Necrostatin-1 (10 μM) which prevents RIPK1 phosphorylation and Caspase-3/7 Inhibitor, for 24 h, followed by IpY.20 for the next 24 h. N=4 *p<0.05.
(§1) When these lines were pre-treated with NAC, Nec-1, or Caspase 3/7 inhibitor followed by IpY.20 treatment, differential results were observed. N=4 *p<0.05 (FIGS. 4A-4D). NAC treatment of BxPC3 cells reduced ROS levels (FIG. 4B), but these cells were rescued by caspase treatment (FIG. 4C). […] Percent viability relative to control plotted in all cases. L3.6 (FIG. 4E), PL45 (FIG. 4F) and Panel (FIG. 4G) were rescued by NEC-1, NAC and caspase inhibition to differing extents. Biomarkers dictating response were determined.

PDAC cell lines [2] = assay: ROS-Glo assay in PDAC cells
Method: (§2) FIGS. 2A-2F. FIGS. 2A and 2B are Western Blots, illustrating results from assays performed with treatment naive cells to analyze the expression levels of p27. Cells were harvested with RIPA buffer supplemented with protease inhibitors. The MCF7-ALT Dox inducible cell line was used as a control. […] Cells were treated with increasing concentrations of IpY.20 for 24h. Viability was measured using the Cell Titer Glo assay (Promega). Viability was calculated relative to untreated control cells. N=4 *p<0.05. […] FIGS. 2D, 2E and 2F are graphs illustrating that IpY.20 induces ROS. Cells were treated with IpY.20 for 24 h. ROS levels were measured using ROS-Glo assay (Promega). % ROS was calculated relative to untreated control cells. N=4 *p<0.05. The MCF7-ALT inducible cell line induced ROS.

BxPC3 = assay: Caspase-Glo 3/7 Assay for apoptosis; settings: treated 24 h
Source text: as §1

pRIPK1 = pRIPK1 expression (marker of necroptosis)
[3] = tested on: CDK4i-resistant and treatment naive breast cancer cells; assay: Arrest of breast cancer cells
[4] = tested on: Pancreatic Ductal Adenocarcinoma (PDAC) cell lines; assay: Cell viability (Cell Titer Glo) in PDAC cell lines
Method: FIGS. 1A-1D. FIGS. 1A and 1B are respectively a graph and an image showing that PDAC cells are resistant to palbociclib-treatment. Cells were treated with increasing concentrations of palbociclib (PD) for 24 h before analysis for viability (Cell Titer Glo, Promega). N=4 *p<0.05. Control=untreated cells. Viability plotted relative to growth in the presence of control. FIGS. 1C and 1D show PL5 cells treated with increasing concentrations of IpY.20 and E′NP before analysis of Cell Titer Glo analysis.
as §2, with “Cells were treated with IpY.20 for 24 h.” left out, “N=4 *p<0.05. The MCF7-ALT inducible cell line induced ROS.” left out
To test whether PDAC cells might be resistant to CDK4/6 inhibition due to activation of CDK2, experiments were performed. […] Some non-specific liposome toxicity was detected at the high concentrations. […]

[5] = L3.6, PL45 and Panel, to differing extents
[6] = PDAC lines that increased pRIPK1, pretreatment 24 h, then IpY.20 24 h

Molecule | rescue from IpY.20 effect (PDAC cell lines [1]; [5]) | rescue from IpY.20 effect (PDAC cell lines [1]; [6]) | ROS levels (PDAC cell lines [2]; BxPC3 cells, pretreatment followed by IpY.20) | caspase expression (BxPC3) | pRIPK1 expression (pRIPK1; Super sensitive PDAC lines) | pRIPK1 expression (pRIPK1; less sensitive PDAC lines) | ROS levels (PDAC cell lines [2]; treated 24 h, relative to untreated control cells) | ability to arrest cells [3] | sensitivity to treatment ([4]; PL5, Panc1, L3.6 and BXPC3) | viability of CDK4i resistant pancreatic cell lines ([4]; increasing concentrations for 24h, relative to untreated control)
CC(=O)N[C@@H](CS)C(=O)O [NAC, N-acetyl-1-cysteine] | rescued | rescued | reduced |  |  |  |  |  |  | 
CN1C(=O)C(Cc2c[nH]c3ccccc23)NC1=S (stereo not drawn) [Nec1, Necrostatin-1] | rescued | rescued |  |  |  |  |  |  |  | 
B1 |  |  |  | strongly induced | did not exhibit induction | increased | induces ROS | behaved similarly to IpY.1 | super sensitivity | reduces viability
